Measured values taken from patent publication US20230287087A1 (MAX PLANCK GESELLSCHAFT ZUR F RDERUNG DER WISSENSCHAFTEN E V, published 2023).
Changes are numbered by the printed parent chain. “And” between values parts separate entries of the source, which are not always exact repeats. Equal entries are not always repeated.

Experiments:
[1] = target: T1, B.1.617.2/Delta RBD (40592-V08H90, Sino Biologicals) (SARS-CoV-2, UniProt P0DTC2 319-541); test: BLI, biotinylated VHH on streptavidin sensor, RBD in solution
[2] = target: T2, SARS-CoV-2 spike receptor-binding domain (RBD), wild type (SARS-CoV-2, UniProt P0DTC2 319-541); test: as above
[3] = target: T3, Spike protein of patient-derived SARS-CoV-2 (D614G) (SARS-CoV-2, UniProt P0DTC2 14-1273); test: cell-based or functional assay
[4] = target: quadruple (K417T, L452R, E484K, N501Y) RBD mutant (SARS-CoV-2, UniProt P0DTC2 319-541); test: method not stated
[5] = target: T3, Spike protein of patient-derived …; test: cell-based or functional assay; remark: listed apart in the source
[6] = target: T1, B.1.617.2/Delta RBD (40592-V08H90, Sino …); test: BLI, biotinylated VHH heterodimer on streptavidin sensor, RBD in solution
[7] = target: T2, SARS-CoV-2 spike receptor-binding …; test: as above
[8] = target: T2, SARS-CoV-2 spike receptor-binding …; test: method not stated
[9] = target: South African RBD mutant (K417N, E484K, N501Y) (SARS-CoV-2, UniProt P0DTC2 319-541); test: BLI
[10] = target: T4, Californian RBD mutant (L452R) (SARS-CoV-2, UniProt P0DTC2 319-541); test: BLI
[11] = target: Brazilian RBD mutant (K417T, E484K, N501Y) (SARS-CoV-2, UniProt P0DTC2 319-541); test: BLI
[12] = target: T3, Spike protein of patient-derived …; test: cell-based or functional assay; remark: listed apart in the source
[13] = target: T4, Californian RBD mutant (L452R); test: method not stated

B1: Re9B09 (VHH)
VHH: QVQLVESGGGLVQPGGSLRLSCAASGFTLDYYAIGWFRQAPGKEREGVSRISSSDGSTDYADSVKGRFTISRDNAKNTVYLQMNSLKPEDTAVYYCATVPGTYYSGNWYYTWHPEAVDYWGKGTQVTVSS
- Kd [1]: 0.1 nM
- Kd [2]: ≤ 0.01 nM
- Lowest SARS-COV-2-neutralizing concentration [3]: 170 pM

B2: Re9H03 (VHH)
VHH: B1 VHH with E115K, Q125L
- fold better binding than Re9B09 [4]: 100 fold
- Lowest SARS-COV-2-neutralizing concentration [3]: 170 pM

B3: Re9H01 (VHH)
VHH: QVQLVESGGGLVQAGDSLRLSCAASGNIFSINAMGWYRQAPGKQRELVAFITSRGSTNYTDSVKGRFTISRDTAKDTVYLQMNSLKPEDTAVYFCRGGYSDYDIYFGSWGQGTQVTVSS
- Lowest SARS-COV-2-neutralizing concentration [3]: 170 pM

B4: Re5D06R15 (VHH)
VHH: QVQLVESGGGLVQPGGSLRLSCAASGITLDYYAMGWFREAPGKEREGVARIRNSDGSTNYADSVKGRFTMSRDNAKDTYYLQMNSLEPEDTADYYCAYGPLTKYGSSWYWPYEYDYWGQGTQVTVSS
- Kd [1]: 0.03 nM
- Kd [2]: ≤ 0.01 nM

B5: Re5D06R28 (VHH)
VHH: B4 VHH with A24I, I27S, I51W, S54N, Y109H
- Kd [1]: 0.08 nM
- Kd [2]: ≤ 0.01 nM

B6: Re6A11 (VHH)
VHH: QVQLVESGGGLVQAGGSLRLSCAASGRTFSNDALGWFRQAPRKEREFVAAINWNSGTYYADSVKGRFTISRDNAKNTVYLQMNSLKPEDTAVYSCAAASDYGLPREDFLYDYWGQGTLVTVSS
- Lowest neutralizing VHH concentration [5]: 50000 pM and 750 µg/liter

B7: Re6A11/Re9F06 ColXVIII trimer (VHH)
VHH: B6 VHH
- Lowest neutralizing VHH concentration [5]: 170 pM and 4 µg/liter

B8: Re9F06 (VHH)
VHH: B6 VHH with L118Q
- Lowest SARS-COV-2-neutralizing concentration [3]: 50000 pM

B9: Re6D06 (VHH)
VHH: QVQLVESGGGLVQAGASLRLSCAASGRMFGVYRMGWFRQAPGKEREFVAGISTSVGTTNYADSVKGRFTISRDNAKNTVYLQMNSLKPEDTAVYYCAARDPTTYEYDYWGQGTQVTVSS
- Lowest SARS-COV-2-neutralizing concentration [3]: 500 pM
- Lowest neutralizing VHH concentration [5]: 1700 pM and 25 µg/liter

B10: Re9B10 (VHH)
VHH: B9 VHH with A14P, A16G
- Lowest SARS-COV-2-neutralizing concentration [3]: 500 pM

B11: Re5A08 (VHH)
VHH: QVQLVESGGGLVQAGGSLRLSCTASGHTFTANRMGWFRQAPGKEREFVAAINWGGDSTNYVDSVKGRFTISRDIAKNTVYLQMNSLKPEDTAVYFCAARNHVTGEFDSWGQGTQVTVSS
- Lowest neutralizing VHH concentration [5]: 5000 pM and 75 µg/liter

B12: Re9F06-SpacerA-Re9B09 (bispecific antibody)
chain: GSQVQLVESGGGLVQAGGSLRLSCAASGRTFSNDALGWFRQAPRKEREFVAAINWNSGTYYADSVKGRFTISRDNAKNTVYLQMNSLKPEDTAVYSCAAASDYGLPREDFLYDYWGQGTQVTVSSTSGEGEGGEGGEGSQVQLVESGGGLVQPGGSLRLSCAASGFTLDYYAIGWFRQAPGKEREGVSRISSSDGSTDYADSVKGRFTISRDNAKNTVYLQMNSLKPEDTAVYYCATVPGTYYSGNWYYTWHPEAVDYWGKGTQVTVSSTS
- Kd [6]: ≤ 0.01 nM
- Kd [7]: ≤ 0.01 nM

B13: Re9F06-SpacerA-Re5D06R28D (bispecific antibody)
chain: GSQVQLVESGGGLVQAGGSLRLSCAASGRTFSNDALGWFRQAPRKEREFVAAINWNSGTYYADSVKGRFTISRDNAKNTVYLQMNSLKPEDTAVYSCAAASDYGLPREDFLYDYWGQGTQVTVSSTSGEGEGGEGGEGSQVQLVESGGGLVQPGGSLRLSCAISGSTLDYYAMGWFREAPGKEREGVARWRNNDGSTNYADSVKGRFTMSRDNAKDTYYLQMNSLEPEDTADYYCAYGPLTKYGDEWHWPYEYDYWGQGTQVTVSSTS
- Kd [6]: ≤ 0.01 nM
- Kd [7]: ≤ 0.01 nM

B14: Re6H06 (VHH)
VHH: QVQLVESGGGLVQPGGSLRLSCAASGVTLDYYAIGWFRQAPGKEREGVSCTSSSDGSTYYADSVKGRFTISRDNAKNTVYLQMNSLKPEDTGVYYCAVVPQTYYGGKYYSQCTANGMDYWGKGTLVTVSS
- Kd [1]: ≤ 0.01 nM
- Kd [2]: ≤ 0.01 nM
- Kd [8]: ≤ 0.001 nM
- Lowest SARS-COV-2-neutralizing concentration [3]: 50 pM
- Kd [9]: ≤ 0.01 nM
- Kd [10]: 0.05 nM
- Kd [11]: ≤ 0.01 nM

B15: Re5F10 (VHH)
VHH: QVQLVESGGGLVQPGGSLRLSCVASGFTFSSFAMGWYRQAPGKECEWVATITITGGSTNYADSVKGRFTISRDNAKNTVYLQMNSLKPEDTAVYYCNPDPGCRRGQGTQVTVSS
- Kd [1]: 0.04 nM
- Kd [2]: 0.04 nM
- Kd [4]: 0.03 nM
- Kd [8]: 0.03 nM
- Lowest SARS-COV-2-neutralizing concentration [3]: 1700 pM

B16: Re7E02 (VHH)
VHH: QVQLVESGGGLVQAGGSLRLSCAASGFTLDYYAIGWFRQAPGKEREGVSYIRSSDGTTYYADSVKGRFTISRDNAKNTVYLQMNSLKPEDTAVYYCAADEAYYSELGWESPWGWSYWGQGTQVTVSS
- Lowest SARS-COV-2-neutralizing concentration [3]: 500 pM

B17: Re6B06 (VHH)
VHH: QVQLVESGGGLVQAGGSLRLSCAASGRAFSSAPMSWFRQAPGKEREFVASVSWSGDSTNYADSVKGRFTISRDNAKNTGYLQMNSLKPEDTAVYYCKRGPYWGQGTQVTVSS
- viral RNA in supernatants of infected cells (qRT-PCR), fold inhibition [12]: ~300 fold
- Lowest SARS-COV-2-neutralizing concentration [3]: 170000 pM
- Lowest neutralizing VHH concentration [5]: 50000 pM and 750 µg/liter

B18: Re7H02 (VHH)
VHH: B17 VHH with S30E, K76E
- Lowest SARS-COV-2-neutralizing concentration [3]: 17000 pM
- Lowest neutralizing VHH concentration [5]: 17000 pM and 250 µg/liter

B19: Re9C08 (VHH)
VHH: QVQLVESGGGLVQPGGSLRLSCAVSGNIFGITAWDWHRQAPGKQRELVAHITSRGDTYYLDSVKGRFAISRDHAKNTLSLQMNSLKPEDTAVYYCYLRTFGPPNDHWGQGTQVTVSS
- Lowest SARS-COV-2-neutralizing concentration [3]: 500 pM

B20: Re10B10 (VHH)
VHH: QVQLVESGGGLVQPGGSLRLSCAASGFTLDYYAIGWFRQAPGKEREGVSRIRSSDGSTTYADSVKGRFTISRDNAKNTVYLQMNSLKPEDTAVYYCAYGPLTKYGSSWYWPYEYDYWGQGTQVTVSS
- Lowest SARS-COV-2-neutralizing concentration [3]: 50 pM

B21: Re5D06 (VHH)
VHH: B20 VHH with F27I, T59N, I70M
- Kd [13]: ~0.4 nM

B22: Re10F10 (VHH)
VHH: B20 VHH with S53N, S54N, T59D
- Lowest SARS-COV-2-neutralizing concentration [3]: 50 pM

B23: Re7B01 (VHH)
VHH: B20 VHH with A23G, S54N, T59D
- Lowest SARS-COV-2-neutralizing concentration [3]: 50 pM

B24: Re6B02 (VHH)
VHH: B20 VHH with G10A, A23V, T59N
- Lowest SARS-COV-2-neutralizing concentration [3]: 50 pM
